How the values were obtained:
[1] = biological target: extracellular domain of the FGFR2b protein (NP_075259.4) (UniProt P21802); experiment: phage ELISA
[2] = biological target: recombinant mouse FGFR2b (mouse) (UniProt P21803); experiment: BLI, antibody on AHC2 sensor
recombinant mouse FGFR2b (mouse), sequence (P21803 22-377): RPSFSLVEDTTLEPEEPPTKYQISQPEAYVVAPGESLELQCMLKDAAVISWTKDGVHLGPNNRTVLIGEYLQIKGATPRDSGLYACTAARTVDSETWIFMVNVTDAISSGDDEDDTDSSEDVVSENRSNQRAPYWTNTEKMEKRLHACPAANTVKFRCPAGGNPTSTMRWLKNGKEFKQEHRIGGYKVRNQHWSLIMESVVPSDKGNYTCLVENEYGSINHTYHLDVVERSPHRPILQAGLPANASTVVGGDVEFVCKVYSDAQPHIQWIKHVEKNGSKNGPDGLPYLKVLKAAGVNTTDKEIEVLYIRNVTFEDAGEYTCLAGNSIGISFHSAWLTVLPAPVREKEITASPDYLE

extracellular domain of the FGFR2b protein (NP_075259.4), sequence (P21802 other isoform, or with tags, fused parts or gaps): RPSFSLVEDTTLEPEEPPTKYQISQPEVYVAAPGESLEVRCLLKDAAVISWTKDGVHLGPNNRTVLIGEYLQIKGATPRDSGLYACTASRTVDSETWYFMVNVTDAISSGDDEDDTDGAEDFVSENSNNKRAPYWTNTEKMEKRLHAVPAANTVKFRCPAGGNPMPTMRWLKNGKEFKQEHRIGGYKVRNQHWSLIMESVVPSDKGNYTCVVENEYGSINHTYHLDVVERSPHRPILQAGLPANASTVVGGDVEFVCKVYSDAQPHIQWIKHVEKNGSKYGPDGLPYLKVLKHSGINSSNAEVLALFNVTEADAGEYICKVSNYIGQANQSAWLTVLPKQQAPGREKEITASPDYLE

Binder	OD (450 nm) value [1]	also measured
3A3 scFv displayed on phage (scFv) scFv: QVQLQQSGAELVKPGASVKMSCKASGYTFTTYNIHWVRQTPGQGLEWIGLIYPDNGDTSYNQKFKAKATLTADKSSSTAYMHLSSLTSEDSAVYYCARGGFDYWGQGTTLTVSSGGGGSGGGGSGGGGSDIVMTQSHKFMSTSVGDRVSITCKASQDVNTDVSWYQQKPGQSPKLLIYSASYRYTGVPTRFTGSGSGTDFTFTISGVQAEDLADYYCQQHYNTPYTFGGGTRLEIK	2.33	–
3E1 scFv displayed on phage (scFv) scFv: QVQLQQPGAEVVKPGASVKMSCKASGYTFTDYYIHWVKQTPGQGLEWIGAIYPDNGDTSYNQKFKVKATLTADKSSSTAYMQLSSLTSEDSAVYYCARAFTYWGQGTLVTVSAGGGGSGGGGSGGGGSDILITQSPASLSASVGETVTITCGASENIYGALNWYQRKQGKSPQLLIYGATNLADGMSSRFSGSGSGRQYSLKISSLHPDDVATYYCQNVLSTPYTFGGGTKLEIK	2.17	–
2B1 scFv displayed on phage (scFv) scFv: EVQLQQSGAELVKPGASVKMSCKASGYTFASYNLHWVKQTPGQGLEWIGLIYPENGDTSYNQKFKGKATLTADKSSSTAYIQLSSLTSEDSAVYFCARGGFDYWGQGTSLTVSSGGGGSGGGGSGGGGSDIQMIQSPASLSVSVGETVTITCRASENIYSNLAWYQQKQGKSPQLLVYNAKTLADGVPSRFSGSGSGTQYSLKINSLQPEDFGSYYCQHFWSTPYTFGGGTKLEIK	2.33	–
3F10 scFv displayed on phage (scFv) scFv: EVQLQQSGAELVKPGASVKMSCKASGYTFSFYNIHWVRQTPGQGLEWIGLIYPDNGDTSYNQKFKAKATLTADKSSSTAYMQLSSLTSEDSAVYYCARGGFDYWGQGTTLTVSSGGGGSGGGGSGGGGSDVLMTQSPASLSASVGETVTITCGASENIYGALNWYQRKQGKSPQLLIYGATNLADGMSSRFSGSGSGRQYSLKISSLHPDDVATYYCQNVLSTPYTFGGGTKLEIK	1.85	–
3A8 scFv-Fc (Fc fusion) QVQLQQSGAELVKPGASVKMSCKASGYTFTIYNIHWVRQTPGQGLEWIGLIYPDNGDTSYNQKFKAKATLTADKSSSTAYMQLSSLTSEDSAVYYCARGGFDYWGQGTSLTVSSGGGGSGGGGSGGGGSDIVMTQSQKFMSTSVGDRVSVTCKASQNVGTNVAWYQQKPGQSPKALIYSASYRYSGVPDRFTGSGSGTDFTLTISNVQAEDLADYFCQQHYSTPYTFGGGTKLEMKESKYGPPCPPCPAPEAAGGPSVFLFPPKPKDTLMISRTPEVTCVVVDVSQEDPEVQFNWYVDGVEVHNAKTKPREEQFNSTYRVVSVLTVLHQDWLNGKEYKCKVSNKGLPSSIEKTISKAKGQPREPQVYTLPPSQEEMTKNQVSLTCLVKGFYPSDIAVEWESNGQPENNYKTTPPVLDSDGSFFLYSKLTVDKSRWQEGNVFSCSVMHEALHNHYTQKSLSLSLG	–	Kd [2]: 7.17 nM; koff [2]: 0.000306 s⁻¹; kon [2]: 42700 M⁻¹ s⁻¹
3D7 scFv displayed on phage (scFv) scFv: QVQLQQSGAELVKPGASVKMSCKASGYTFSFYNMHWVKRTPGRGLEWIGLIYPDNGDTSYNQKFKGKATLTADTSSSTAYMQLSSLTSEDSAVYYCARGGLDYWGQGTSLTVSSGGGGSGGGGSGGGGSEIVLTQSPASLAVSLGQRATISCKASQSVDYDGDSYMNWYQQKPGQPPKLLIYGISNRFSGVPDRFSGSGSGTDFTLKISTIKPEDLGMYYCLQGTHQPYTFGGGTKLEIK	2.2	–
3E7 scFv displayed on phage (scFv) scFv: QVQLQQSGAELVKPGASVKMSCKASGYTFTIYNIHWVRQTPGQGLEWIGLIYPDNGDTSYNQKFKAKATLTADKSSSTAYMQLSSLTSEDSAVYYCARGGFDYWGQGTTLTVSSGGGGSGGGGSGGGGSNIVMTQSQKFMSTSVGDRVSVTCKASQNVGTNVAWYQQKPGQSPKALIYSASYRYSGVPDRFTGSGSGTDFTLTISGVQAEDLADYYCQQHYNTPYTFGGGTKLEIK	1.88	–
1D7 scFv displayed on phage (scFv) scFv: QIQLQQSGAELVKPGASVKMSCKASGYTFRYYNMHWVKRTPGQGLEWIGLIYPDNGDTSYNQKFKGKATLTADTSSSTAYMQLSSLTSEDSAVYYCARGGLDYWGQGTSLTVSSGGGGSGGGGSGGGGSDIQMTQSPSSMSASLGDRITITCQATQDIVKNLNWYQQKPGKPPSFLIYYATELAEGVPSRFSGSGSGSDYSLTISNLESEDFADYYCLQFYEFPLTFGAGTKLELK	2.14	–
3E2 scFv displayed on phage (scFv) scFv: EIQLQQSGAELVKPGASVKMSCKASGYTFSFYNMHWVKRTPGQGLEWIGLIYPDNGDTSYNQKFKGKATLTADTSSSTAYMQLSSLTSEDSAVYYCARGGLDYWGQGTSLTVSSGGGGSGGGGSGGGGSNIVMTQSQKFMSTSVGDRVSVTCKASQNVGTNVAWYQQKPGQSPKALIYSASYRYTGVPDRFTGSGSGTDFTFTISSVQAEDLAVYYCQQHYSTPYTFGGGTKLEIK	1.87	–
3F11 scFv displayed on phage (scFv) scFv: QVQLQQSGAELVKPGASVKMSCKASGYTFAPYNIHWVRQTPGQGLEWIGLIYPDNGDTSYNQKFKAKATLTADKSSSTAYMQLSSLTSEDSAVYYCARGGFDYWGQGTSLTVSSGGGGSGGGGSGGGGSDIVMTQSQKFMSTSVGDRVSVTCKASQNVGTNVAWYQQKPGQSPKALIYSASYRYSGVPDRFTGSGSGTDFTLTISNVQSEDLAEYFCQQHYSTPFTFGSGTKLEIK	2	–
3A8 scFv displayed on phage (scFv) scFv: QVQLQQSGAELVKPGASVKMSCKASGYTFTIYNIHWVRQTPGQGLEWIGLIYPDNGDTSYNQKFKAKATLTADKSSSTAYMQLSSLTSEDSAVYYCARGGFDYWGQGTSLTVSSGGGGSGGGGSGGGGSDIVMTQSQKFMSTSVGDRVSVTCKASQNVGTNVAWYQQKPGQSPKALIYSASYRYSGVPDRFTGSGSGTDFTLTISNVQAEDLADYFCQQHYSTPYTFGGGTKLEMK	2.22	–
2B2 scFv displayed on phage (scFv) scFv: QLQLQQSGAELVKPGASVKMSCKASGYTFASYNLHWVKQTPGQGLEWIGLIYPENGDTSYNQKFKDKATLTADKSSTTAYIQLSSLASEDSAVYFCARGGFDYWGQGTTLTVSSGGGGSGGGGSGGGGSDIVMTQSQKFMSTSVGDRVSVTCKASQNVGTNVAWYQQKPGQSPKALIYSASYRYSGVPDRFTGSGSGTDYTLTISSVQAEDLALYYCQQHYSTPYTFGGGTKLELK	2.38	–
3H6 scFv displayed on phage (scFv) scFv: QVQLQQSGAELVKPGASVKMSCKASGYTFSFYNIHWVRQTPGQGLEWIGLIYPDNGDTSYNQKFKAKATLTADKSSSTAYMQLSSLTSEDSAVYYCARGGFDYWGQGTTLTVSSGGGGSGGGGSGGGGSDIQMTQSPASLSASVGETVTITCRASENIYSYLAWYQQKQGKSPQLLVYNAKTLAEGVPSRFSGSGSGTQFSLKINSLQPEDFGSYYCQHHYGTPYTFGGGTKLEMK	2.29	–
1B8 scFv displayed on phage (scFv) scFv: QIQLQQSGAELVKPGASVKMSCKASGYTFASYNLHWVKQTPGQGLEWIGLIYPENGDTSYNQKFKGKATLTADTSSTTAYIQLSSLTSEDSAVYFCARGGFDYWGQGTSLTVSSGGGGSGGGGSGGGGSDIKMTQSPASLSASVGETVTITCGASENIYGALNWYQRKQGKSPQLLIYGATNLADGMSSRFSGSGSGRQYSLKISSLHPDDVATYYCQNVLSTPYTFGGGTKLEIK	2.65	–
1A3 scFv displayed on phage (scFv) scFv: QVQLQQPGAELVKPGASVKMSCKASGYTFASYNLHWVKQTPGQGLEWIGLIYPENGDTSYNQKFKGKATLTADKSSSTAYIQLSSLTSEDSAVYFCARGGFDYWGQGTTLTVSQGGGGSGGGGSGGGGSDIQMTQSPASLSASVGETVTITCGASENIYGALNWYQRKQGKSPQLLIYGATNLADGMSSRFSGSGSGRQYSLKISSLHPDDVATYYCQNVLSTPYTFGGGTKLEIK	2.67	–
3E3 scFv displayed on phage (scFv) scFv: QVQLQQPGAVLVKPGASVRMSCKASGYTFPYYNVHWVKRTPGQGLEWIGLIYPDNGDTSYNQKFTGKATLTADTSSSTAYMQLSSLTSEDSAVYYCARGGLDYWGQGTTLTVSAGGGGSGGGGSGGGGSDVQITQSPASLSASVGETVTITCGASENIYGALNWYQRKQGKSPQLLIYGATNLADGMSSRFSGSGSGRQYSLKISSLHPDDVATYYCQNVLSTPYTFGGGTKLEIK	2.28	–
3F5 scFv displayed on phage (scFv) scFv: EIQLQQSGAELVKPGASVKMSCKASGYTFRYYNMHWVKRTPGQGLEWIGLIYPDNGDTSYNQKFKGKATLTADTSSSTAYMQLSSLTSEDSAVYYCARGGLDYWGQGTTLTVSSGGGGSGGGGSGGGGSDIVLTQSPASLSASVGETVTITCGASENIYGALNWYQRKQGKSPQLLIYGATNLADGMSSRFSGSGSGRQYSLKISSLHPDDVATYYCQNVLSTPYTFGGGTKLEIK	1.94	–
3B4 scFv displayed on phage (scFv) scFv: EVQLQQSGADLVKPGASVKMSCKASGYTFSYYNMHWVRRTPGQGLEWIGLIYPDNGDTSYNQKFKGKATLTADTSSSTAYMQLSSLTSEDSAVYYCARGGLDYWGQGTTLTVSSGGGGSGGGGSGGGGSDIQMIQSPASMSASVGETVTITCGASENIYGALNWYQRKQGKSPQLLIYGATNLADGMSSRFSGSGSGRQYSLKISSLHPDDVATYYCQNVLSTPYTFGGGTKLEMK	2.47	–
1G6 scFv displayed on phage (scFv) scFv: EIQLQQSGAELVKPGASVKMSCKASGYTFRYYNMHWVKRTPGQGLEWIGLIYPDNGDTSYNQKFKGKATLTADTSSSTAYMQLSSLTSEDSAVYYCARGGLDYWGQGTSLTVSSGGGGSGGGGSGGGGSNIVMTQSHKFMSTSVGDRVSITCKASQDVNTDVAWYQQKPGQSPKLLIYSASYRYTGVPTRFTGSGSGTDFTFTISGVQAEDLADYYCQQHYNTPYTFGGGTKLELK	2.44	–
3G10 scFv displayed on phage (scFv) scFv: EVQLQQSGPELVKPGASVKMSCKASGYTFATYNMHWVKQTTGQGLEWIGAIYPDNGDTFYNRKFKDKATLTADKSSTTAYMQLSSLTSEDSAVYYCARGDFAYWGQGTLVTVSAGGGGSGGGGSGGGGSDVLMTQSPASLSASVGETVTITCGASENIYGALNWYQRKQGKSPQLLIYGATNLADGMSSRFSGSGSGRQYSLKISSLHPDDVATYYCQNVLSTPYTFGGGTKLEMK	1.95	–

From patent EP4714976A1
